Here are results for one substance from article PMC11912937.

This test has as its target FACT complex (SPT16/SSRP1), full length, untreated (human) (UniProt Q9Y5B9). Kind of test: SEC; analytical SEC of CCAN with different amounts of FACT; peak fractions on SDS-PAGE with TCE, tryptophan fluorescence of the bands normalised to the number of tryptophans and to SPT16.

Chain of FACT complex (SPT16/SSRP1), full length, untreated (human) (Q9Y5B9 whole entry, chain 1 of 2): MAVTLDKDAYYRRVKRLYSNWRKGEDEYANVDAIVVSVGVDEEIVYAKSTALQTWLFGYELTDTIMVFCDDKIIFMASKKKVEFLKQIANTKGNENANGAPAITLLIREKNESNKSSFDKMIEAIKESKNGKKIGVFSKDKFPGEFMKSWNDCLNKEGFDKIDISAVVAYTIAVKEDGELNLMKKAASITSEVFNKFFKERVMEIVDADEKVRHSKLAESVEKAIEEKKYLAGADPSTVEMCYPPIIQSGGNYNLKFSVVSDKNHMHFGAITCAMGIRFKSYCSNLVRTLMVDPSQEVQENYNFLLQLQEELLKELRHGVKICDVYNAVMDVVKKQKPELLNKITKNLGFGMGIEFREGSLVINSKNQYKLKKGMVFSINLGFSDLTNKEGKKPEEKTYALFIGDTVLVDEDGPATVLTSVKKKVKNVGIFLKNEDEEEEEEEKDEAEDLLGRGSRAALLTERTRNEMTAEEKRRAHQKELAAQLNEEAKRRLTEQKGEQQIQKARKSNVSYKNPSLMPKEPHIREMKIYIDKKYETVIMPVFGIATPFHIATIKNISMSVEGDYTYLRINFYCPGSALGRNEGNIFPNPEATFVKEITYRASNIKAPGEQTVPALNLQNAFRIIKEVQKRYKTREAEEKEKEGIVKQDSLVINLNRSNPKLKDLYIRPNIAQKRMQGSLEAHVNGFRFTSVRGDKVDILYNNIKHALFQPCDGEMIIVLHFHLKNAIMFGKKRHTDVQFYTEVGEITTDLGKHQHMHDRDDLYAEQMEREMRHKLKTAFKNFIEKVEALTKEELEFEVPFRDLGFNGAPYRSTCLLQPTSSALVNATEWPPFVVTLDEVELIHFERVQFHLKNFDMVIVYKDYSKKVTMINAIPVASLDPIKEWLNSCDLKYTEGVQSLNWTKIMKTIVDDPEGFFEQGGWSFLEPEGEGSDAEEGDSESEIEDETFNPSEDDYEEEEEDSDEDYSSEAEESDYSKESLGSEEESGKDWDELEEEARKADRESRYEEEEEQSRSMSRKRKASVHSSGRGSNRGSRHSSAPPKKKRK
Chain of FACT complex (SPT16/SSRP1), full length, untreated (human) (Q08945 whole entry, chain 2 of 2, further chain): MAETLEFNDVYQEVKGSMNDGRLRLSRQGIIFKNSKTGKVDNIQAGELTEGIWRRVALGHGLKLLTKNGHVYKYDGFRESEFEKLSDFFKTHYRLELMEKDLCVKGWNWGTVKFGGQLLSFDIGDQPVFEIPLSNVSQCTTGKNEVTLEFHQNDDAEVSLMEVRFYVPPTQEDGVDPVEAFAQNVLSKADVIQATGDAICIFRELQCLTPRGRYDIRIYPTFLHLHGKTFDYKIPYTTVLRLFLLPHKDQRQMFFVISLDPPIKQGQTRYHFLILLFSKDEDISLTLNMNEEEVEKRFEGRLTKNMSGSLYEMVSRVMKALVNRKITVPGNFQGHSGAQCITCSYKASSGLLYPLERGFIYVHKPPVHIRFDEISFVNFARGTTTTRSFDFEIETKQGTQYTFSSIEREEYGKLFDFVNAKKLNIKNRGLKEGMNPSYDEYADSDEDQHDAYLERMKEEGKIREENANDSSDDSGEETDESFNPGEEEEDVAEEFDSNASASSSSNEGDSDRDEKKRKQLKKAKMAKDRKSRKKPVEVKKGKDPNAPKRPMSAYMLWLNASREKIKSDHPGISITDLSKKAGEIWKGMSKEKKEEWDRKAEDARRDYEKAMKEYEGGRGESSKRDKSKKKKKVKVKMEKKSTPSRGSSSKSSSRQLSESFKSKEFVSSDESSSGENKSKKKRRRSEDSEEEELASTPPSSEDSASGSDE

“CCAN, 16-subunit constitutive centromere-associated network reconstituted with CENP-C^2–545 (from UniProt Q03188 2-545; Q9H3R5 1-247; Q92674 1-756; Q9BS16 1-269; Q9NSP4 1-180; Q8N0S6 1-344; Q96H22 1-339; Q9BU64 1-300; Q6IPU0 1-288; Q7L2Z9 1-268; Q71F23 1-418; Q13352 1-177; Q96BT3 1-561; Q5EE01 1-88; Q8N2Z9 1-138; A8MT69 1-81) (complex)”: the stoichiometry N (FACT per CCAN) is 1.
